Results taken from patent publication US20190092852A1 (Genentech, published 2019).
Numbering of substitutions follows the chain as printed. “And” between values parts separate entries of the source, which are not always exact repeats. Equal entries are not always repeated.

B1: H4H9660P (antibody, V domains shown)
VH: EVQLVESGGGLVQPGGSLRLSCAASGITLSSYGMSWVRQAPGKGLEWVASIFGSGGGPYYADSVKGRFTMSRDNSKNTLYLQMNSLRAEDTAVYYCAKDRYSGSYYGGFDYWGRGTLVTVSS
VL: DIQMTQSPSSVSASVGDRVTITCRASQGITSWLAWYQQKPGKAPTLLIYAASSLQTGVPSRFSGSGSGTDFTLTISSLQPEHFATYYCQQANSFPPTFGGGTKVEIK
B2: H4H9671P (antibody, V domains shown)
VH: EVQLVESGGGLVQPGGSLRLSCAASGFTLRSYFMTWVRQVPGKGLEGVSAISGISGGTYYTDSVKGRFTISRDNSKNTLFLQMNSLRAEDTAVYFCARTVYSSSYYGGFQHWGQGTLVTVSS
VL: B1 VL with A13V, T30S, T45K, A50V, T56S, H82D, A91T, P96L
B3: H4H9663P (antibody, V domains shown)
VH: QVQLVQSGAEVKKPGASVKVSCKASGYTFTGHYMYWMRQAPGQGLEWMGWINPNSGGTNYAQKFQDRVTMTRDTSISTAYMELSRLRSDDTAVYYCARGRYGSSWYGGFEYWGQGTLVTVSS
VL: B1 VL with T45N, S52A, T56S, H82D, A84T, N92Y, F94L, P96L
B4: H4H9662P (antibody, V domains shown)
VH: EVQLVESGGGLVQPGGSLRLSCAASGFTFSSYALTWVRQAPGKGLEWVSFISGSGGRPFYADSVKGRFTISRDNSKNMLYLQMNSLRAEDTAIYYCAKSLYTTSWYGGFDSWGQGTLVTVSS
VL: B1 VL with I29V, T30V, T45K, T56S, H82D, A91S, P96F, F98L, G100P, E105D
B5: H4H9665P (antibody, V domains shown)
VH: EVQLVESGGGLVQPGGSLRLSCAASGFTFSNYAMTWVRQAPGKGLEWVSTISGSGDNTYYADSVQGRFTISRGHSKNTLYLQMNSLRAEDTAVYYCAKPTYSRSWYGAFDFWGQGTMVTVSS
VL: B1 VL with T30S, T45Q, S53R, T56S, S63W, H82D, S93N, P96F, G100P, E105D
B6: 9F6.34.E10 (antibody, V domains shown)
VH: EVQLVQSGAEVKKPGASVKVSCKASGYTFTSYWINWVRQAPGQGLEWIGRIAPGSGFISYNELFKDRVTITRDTSTSTAYLELSSLRSEDTAVYYCAREFYYGSFYGGFAYWGQGTLVTVSS
VL: DIQMTQSPSSLSASVGDRVTITCHASQNIHVWLSWYQQKPGKAPKLLIYKASTLHTGVPSRFSGSGSGTDFTLTISSLQPEDFATYYCQQGQSSPLTFGQGTKVEIK
notes: Humanized variant of 9F6
B7: 4G12.FW4 (antibody, V domains shown)
VH: ELQLQESGPGLVKPSETLSLTCTVSGGSIRSSIFYWGWIRQPPGKGLEWIGSIYYSGRTYYNPSLKSRVTISVDTSKNQFSLMLTSVTAADTAVYYCARAGGLYNWNDESFSFYMDVWGQGTTVTVSS
VL: EIVLTQSPGTLSLSPGERATLSCRASQSFSSSYLAWYQQKPGQAPRLLIYGASSRATGIPDRFSGSGSGTDFTLTISRLEPEDFAVYYCQQYDRSPLTFGGGTKVEIK
notes: Derivative of 4G12
B8: 101.B11 (antibody, V domains shown)
VH: QVQLVQSGGGLVQPGGSLKLSCAASGFTFSGSAMHWVRQASGKGLEWVGRIRSRNNNYATAYAASVKGRFTISRDDSKRTTYLQMNSLKTEDTAVYYCTRLQQPPFDYWGQGTLVTVSS
VL: DIQMTQSPSSLSASVGDRVTITCRASQGIRNDLDWYQQKPGKAPKRLIYAASSLQSGVPSRFNGSGSGTEFTLTISSLQPEDFATYYCLQHDSYPLTFGGGTKVEIK
notes: Transgenic mouse / phage display

Molecular target: T1, cynomolgus monkey N-terminal 6-His-tagged and C-terminal Avi-tagged IL-33 (S112-T270) (cynomolgus monkey)
T1 chain: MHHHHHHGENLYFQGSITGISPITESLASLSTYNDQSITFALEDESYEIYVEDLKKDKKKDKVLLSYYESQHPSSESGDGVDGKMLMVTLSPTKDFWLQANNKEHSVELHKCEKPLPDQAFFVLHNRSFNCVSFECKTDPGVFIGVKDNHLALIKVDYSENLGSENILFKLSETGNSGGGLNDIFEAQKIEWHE
Experiment: cell-based or functional assay

Binder	IC50; SEAP reporter (OD 620), HEK-BLUE IL-33/IL-1beta cells, 5 pM cyno IL-33 (5pM cIL-33-Nhis)
B1	4.8e-08 M
B2	5e-08 M
B3	2.3e-08 M
B4	3.4e-08 M
B5	1.1e-08 M

molecular target: T2, cyno IL-33 (cell-based blocking assay of Example 2) (cynomolgus monkey, UniProt A0A2K5W3I1 95-269); experiment: cell-based or functional assay
T2 sequence: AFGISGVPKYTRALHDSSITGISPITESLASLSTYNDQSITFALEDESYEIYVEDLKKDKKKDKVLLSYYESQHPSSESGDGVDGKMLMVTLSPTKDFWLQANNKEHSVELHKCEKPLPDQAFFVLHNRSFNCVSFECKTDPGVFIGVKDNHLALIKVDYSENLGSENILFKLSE

Binder	Cell assay (cy) IC90
B6	> 1.5 µg/mL and > 9.9 nM
B7	0.034 µg/mL and 0.224 nM

molecular target: T3, human IL-33 (cell-based blocking assay of Example 2) (human, UniProt O95760 112-270); experiment: cell-based or functional assay
T3 sequence (looked up): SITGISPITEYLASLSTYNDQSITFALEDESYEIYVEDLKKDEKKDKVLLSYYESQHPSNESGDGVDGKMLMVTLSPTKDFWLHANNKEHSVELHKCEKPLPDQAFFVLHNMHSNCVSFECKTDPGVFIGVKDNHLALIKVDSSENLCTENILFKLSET

Binder	Cell assay (hu) IC90
B6	0.0128 µg/mL and 0.84 nM
B8	0.3 mg/L
B7	0.17 µg/mL and 1.12 nM

Molecular target: T4, cyno IL-33 N-His (cynomolgus monkey)
T4 chain: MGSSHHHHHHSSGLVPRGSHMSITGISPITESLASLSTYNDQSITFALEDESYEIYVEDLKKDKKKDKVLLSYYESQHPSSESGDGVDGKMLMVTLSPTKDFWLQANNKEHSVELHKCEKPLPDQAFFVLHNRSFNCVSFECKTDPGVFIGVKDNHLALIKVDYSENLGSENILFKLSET
Experiment: SPR Biacore T200, 25 C
Description: (§1) The binding kinetics of the anti-IL-33 antibody 10C12.38.H6.87Y.58I IgG4 and each anti-IL-33 antibody listed in Table 5 (RG1-RG20) to IL-33 were measured using surface plasmon resonance (SPR) on a BIACORE® T200 instrument (GE Healthcare). Anti-human Fc or anti-murine Fc (GE Healthcare, #BR-1008-39 or BR-1008-38, respectively) was immobilized on a CM5 sensor chip via amine-based coupling according to the manufacturer's protocol. Surfaces were used to capture monoclonal human IgG4 and monoclonal murine IgGs for kinetic studies. Antibody binding was measured to human IL-33 (R&D systems, #3625-IL-010/CF) and cyno IL-33 N-His (SEQ ID NO: 317) (Genentech, Inc.). A three-fold concentration series of cytokine with a range of 3.7 to 100 nM was used for the experiments. Sensograms for binding of IL-33 were recorded using an injection time of 4 min with a flow rate of 30 μl/minute with a running buffer of 0.01 M N-(2-Acetamido)iminodiacetic acid (ADA) pH 7.4, 0.15 M NaCl, 3 mM EDTA, and 0.05% TWEEN®-20. After injection, disassociation of the ligand from the antibody was monitored for 10 min in running buffer. The surface was regenerated in between cycles with an injection of 3 M magnesium chloride or Glycine-HCl pH 1.7. All binding experiments were performed at a temperature of 25′C and 37° C. After subtraction of a blank which contained running buffer only, sensograms observed for IL-33 binding to anti-IL-33 antibodies were analyzed using a 1:1 Langmuir binding model with software supplied by the manufacturer to calculate the kinetics and binding constants, including the dissociation constant (KD). Dissociative half-lives (t_{1/2}) were calculated from the kinetic rate constants. KD (M)=koff/kₒₙ and t_{1/2} (min)=ln(2)/(60*koff). […] In Tables 6-9, *IC indicates the result is inconclusive due to weak capture of antibody was observed, leading to poor binding data.

Binder	Kd	koff	kon	t1/2
B1	2.69 nM	0.00064 s⁻¹	238000 M⁻¹ s⁻¹	18 min
B2	1.72 nM	0.000915 s⁻¹	533000 M⁻¹ s⁻¹	13 min
B3	1.07 nM	0.000545 s⁻¹	511000 M⁻¹ s⁻¹	21 min
B4	1.28 nM	0.000313 s⁻¹	245000 M⁻¹ s⁻¹	37 min
B5	0.976 nM	0.000426 s⁻¹	437000 M⁻¹ s⁻¹	27 min

molecular target: T5, biotinylated cyno IL-33 (cynomolgus monkey, UniProt A0A2K5W3I1 112-269, biotin-labeled with EZ-LINK NHS-PEG4-Biotin); experiment: competitive ELISA, biotin-cyIL-33 to coated hST2-Fc
T5 construct: also called biotin-cyIL-33
T5 sequence: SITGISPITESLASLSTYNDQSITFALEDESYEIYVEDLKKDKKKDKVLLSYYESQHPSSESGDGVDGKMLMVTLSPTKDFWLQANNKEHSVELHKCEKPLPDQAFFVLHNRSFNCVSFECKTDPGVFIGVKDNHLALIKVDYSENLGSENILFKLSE
Description: The ability of the anti-IL-33 antibody 10C12.38.H6.87Y.58I IgG4 and each anti-IL-33 antibody listed in Table 5 (RG1-RG20) to block either human IL-33 or cyno IL-33 binding to human ST2 receptor was tested in a competitive binding ELISA. Briefly, 1 μg/ml of recombinant human ST2-Fc chimera protein prepared in coating buffer (50 mM sodium carbonate, pH 9.6) was coated on a 384-well MAXISORP® plate (Nalgene Nunc International; Rochester, N.Y.) and incubated overnight at 4° C. On the next day, non-specific binding was blocked with PBS containing 0.5% (w/v) solution of bovine serum albumin (BSA). Fixed concentrations of biotinylated human or cyno IL-33 prepared in assay buffer (25 mM PBS, pH 7.2, 0.1% BSA, 0.05% TWEEN®-20) were mixed with an equal volume of serially-diluted anti-IL-33 antibodies or assay buffer alone and incubated for 1 h at room temperature. The final assay concentrations of biotinylated human IL-33 or cyno IL-33 were 20 pM and 45 pM, respectively, and the final assay concentration of each antibody ranged from 0-300 nM. The pre-mixed solutions were added to the ST2-Fc coated plate and incubated for 1 h at room temperature. The binding of biotinylated IL-33 to coated ST2-Fc was detected by the sequential addition of Streptavidin Poly-HRP80 (Fitzgerald; Buckinghamshire, UK) and 3,3′,5,5′-tetramethyl benzidine (TMB) Microwell Peroxidase Substrate System (KPL; Gaithersburg, Md.). The absorbance (450 nm) was recorded using a […] ASCENT® plate reader (Thermo Scientific; Rockford, Ill.). The binding activity (%) of biotin-IL-33 to ST2 in the presence of anti-IL-33 was plotted as a function of antibody concentration. The data generated were fitted to a four-parameter equation to determine IC₅₀ values for each antibody (FIGS. 25A and 25B) using Prism software (Graphpad Software; La Jolla, Calif.). The maximum blocking (%) of each antibody was calculated as the ratio of the reduction in signal measured in the presence of antibody relative to the difference between the signal with IL-33 alone and background measurements.

Binder	IC50	Maximum Blocking
B1	120 nM	18%
B2	70 nM	40%
B3	26 nM	61%
B4	66 nM	47%
B5	19 nM	53%

molecular target: T6, cyno IL-33 (construct not stated) (cynomolgus monkey, UniProt A0A2K5W3I1 112-269); experiment: SPR Biacore
T6 construct: also called cynomolgus IL-33; cyno IL-33 (Genentech)
T6 sequence: T5 sequence

Binder	Kd
B8	0.783 nM
B7	0.07 nM

molecular target: T7, human IL-33 (Genentech, huIL33.his) (human, UniProt O95760 112-270); experiment: SPR Biacore
T7 sequence (looked up): T3 sequence (looked up)

Binder	Kd
B6	0.795 nM
B8	0.527 nM
B7	0.038 nM

Molecular target: T4, cyno IL-33 N-His
Experiment: SPR Biacore T200, 37 C
Description: as §1

Binder	Kd	koff	kon	t1/2
B1	7.93 nM	0.00305 s⁻¹	385000 M⁻¹ s⁻¹	4 min
B2	3.66 nM	0.00326 s⁻¹	890000 M⁻¹ s⁻¹	4 min
B3	1.03 nM	0.00202 s⁻¹	1.96e+06 M⁻¹ s⁻¹	6 min
B4	2.31 nM	0.00112 s⁻¹	484000 M⁻¹ s⁻¹	10 min
B5	1.96 nM	0.00142 s⁻¹	727000 M⁻¹ s⁻¹	8 min
